{"source": "paper PMC2148171", "about": "(The Journal of Cell Biology, 1998)", "proteins": {"B1": {"name": "baculovirus produced 6x histidine-tagged recombinant CHO cell MCAK (mitotic centromere-associated kinesin) (natural protein, Chinese hamster (CHO cell MCAK), UniProt P70096 1-718, looked up)", "chain": "MESLPARLFPGLSIKIQRSNGLIHSANISTVNVEKSCVSVEWIEGGNTKGKEIDFDDVAAINPELLQLLPLHPKDNLPLQENVTVPKQKRRSVNSKIPAPKEGLRSRSTRMSTVPEVRIATQENEMEVELPVATNSRKQFSVATGLPRPSCPAMTELPLSMVSEEAEEQVHPTRSTSSANPARRKSCIVKEMEKMKNKREEKRAQNSEIRIKRAQEYDSSFPNWEFARMIKEFRVTIECHPLTLTDPTEEHRICVCVRKRPLNKQELAKKEIDVISVPSKCLLFVHEPKLKVDLTKYLENQAFCFDFAFDETASNEVVYRFTARPLVQTIFEGGKATCFAYGQTGSGKTHTMGGDLSGKSQNTSKGIYAMASRDVFLLKSQPRYRNLNLEVYVTFFEIYNGKVFDLLNKKAKLRVLEDSKQQVQVVGLQEYLVNCADDVIKMLNMGSACRTSGQTFANSNSSRSHACFQILLRAKGRLHGKFSLVDLAGNERGADTSSADRQTRMEGAEINKSLLALKECIRALGQNKAHTPFRESKLTQVLRDSFIGENSRTCMIAMISPGISSCEYTLNTLRYADRVKELSPHSGLSGEQPIQMETEEMEASSNGTSLAVNFKEEEELSSQMSSFNEAMSQIRELEERAMEELREIIQQGPGWLELSEMTDQPDYDLETFVNKAESALTQQTKHFSALREVIKALRVAMQLEEQASKQMNSKKRHQ"}, "B2": {"name": "MCAK (mitotic centromere-associated kinesin) in CHO cells (natural protein, Chinese hamster (endogenous in CHO-K1), UniProt P70096 1-718, looked up)", "chain": "B1 chain"}}, "key": {"[1]": {"biological_target": "the molecule itself", "assay": "SEC + other: sucrose density gradient centrifugation"}, "[2]": {"biological_target": "the molecule itself", "assay": "SEC + other: sucrose density gradient centrifugation", "remark": "listed apart in the source"}}, "note": "Where two headings read alike, the source gives them in different places."}
{"protein": "B1", "values": [{"measurement": "stoichiometry N", "setting": "[1]", "result": 2}]}
{"protein": "B2", "values": [{"measurement": "stoichiometry N", "setting": "[2]", "result": 2}]}
